Experiments:
[1] = target: T1, OsMADS45 aa 61-248 (Oryza sativa, UniProt P0C5B0 61-248); test: Y2H; output trait library
T1 construct: prey, AD fusion; also called PN20231
T1 sequence: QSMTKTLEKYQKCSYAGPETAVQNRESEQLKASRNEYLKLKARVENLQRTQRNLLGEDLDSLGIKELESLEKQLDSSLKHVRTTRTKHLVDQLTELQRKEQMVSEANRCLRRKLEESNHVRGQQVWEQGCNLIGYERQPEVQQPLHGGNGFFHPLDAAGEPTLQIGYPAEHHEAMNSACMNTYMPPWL
How it was run: (§1)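 Protein-protein interactions were detected with an automated, high-throughput yeast two-hybrid assay provided by Myriad Genetics Inc. (Salt Lake City, Utah). A bait clone encoding a defined amino-acid fragment of a rice protein was screened against a rice prey library, either the input trait or the output trait library. Prey clones were retrieved, and their encoding sequences were compared by BLAST against databases to identify the interacting proteins.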

[2] = target: T2, OsHSP70 aa 138-360 (Oryza sativa); test: Y2H; output trait library
T2 construct: bait, Gal4 DBD fusion; also called PN20775; heat shock protein hsp70
How it was run: (§2)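 Protein interactions were tested in an automated, high-throughput yeast two-hybrid screen supplied by Myriad Genetics Inc. Fragments of rice proteins, defined by amino-acid range, served as bait against rice prey clone libraries. Interacting prey clones were retrieved from the output trait library. The sequences encoding the retrieved fragments were compared by BLAST analysis against databases to identify the full-length genes. Each value records whether an interaction was detected.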

[3] = target: T3, Os018989-4003 aa 90-220 (Oryza sativa); test: Y2H; input trait library
T3 construct: bait, Gal4 DBD fusion; also called PN21044
T3 chain: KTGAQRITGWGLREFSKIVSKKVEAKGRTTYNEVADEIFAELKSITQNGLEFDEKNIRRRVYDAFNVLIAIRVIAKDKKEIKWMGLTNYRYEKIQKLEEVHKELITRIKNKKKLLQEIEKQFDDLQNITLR
How it was run: as §1

[4] = target: T4, OsTFX1 aa 400-629 (Oryza sativa); test: Y2H; output trait library
T4 construct: bait, Gal4 DBD fusion; also called PN19697; O. sativa Putative Transcription Factor X1
How it was run: as §1

[5] = target: T5, OsSGT1 aa 200-368 (Oryza sativa, UniProt Q0JL44 200-367); test: Y2H; output trait library
T5 construct: bait, Gal4 DBD fusion; also called PN20285
T5 sequence: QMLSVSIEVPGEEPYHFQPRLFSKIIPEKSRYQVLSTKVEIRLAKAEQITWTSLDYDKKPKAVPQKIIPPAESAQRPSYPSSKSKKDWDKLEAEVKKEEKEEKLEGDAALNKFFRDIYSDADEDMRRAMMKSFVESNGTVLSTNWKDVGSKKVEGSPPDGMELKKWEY
How it was run: as §2

[6] = target: T6, OsMADS6 aa 50-200 (Oryza sativa, UniProt Q6EU39 50-200); test: Y2H; input trait library
T6 construct: bait, Gal4 DBD fusion; also called PN20233
T6 sequence: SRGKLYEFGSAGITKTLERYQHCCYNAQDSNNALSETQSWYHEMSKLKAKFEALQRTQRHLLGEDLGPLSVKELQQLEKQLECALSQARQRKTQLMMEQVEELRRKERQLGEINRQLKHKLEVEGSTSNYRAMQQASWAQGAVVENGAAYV
How it was run: as §1

[7] = target: T7, OsHOS59 aa 1-206 (Oryza sativa, UniProt Q94LW4 113-311); test: Y2H; output trait library
T7 construct: bait, Gal4 DBD fusion; also called PN20559
T7 sequence: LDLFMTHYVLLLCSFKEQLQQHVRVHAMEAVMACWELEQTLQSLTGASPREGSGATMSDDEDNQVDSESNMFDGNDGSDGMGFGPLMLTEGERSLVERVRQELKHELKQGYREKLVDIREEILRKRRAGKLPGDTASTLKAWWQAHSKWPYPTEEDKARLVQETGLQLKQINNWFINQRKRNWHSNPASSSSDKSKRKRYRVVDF
How it was run: as §1

[8] = target: T8, OsMADS45 aa 50-198 (Oryza sativa, UniProt P0C5B0 50-198); test: Y2H; input trait library
T8 construct: bait, Gal4 DBD fusion; also called PN20231; O. sativa MADS box protein MADS45
T8 sequence: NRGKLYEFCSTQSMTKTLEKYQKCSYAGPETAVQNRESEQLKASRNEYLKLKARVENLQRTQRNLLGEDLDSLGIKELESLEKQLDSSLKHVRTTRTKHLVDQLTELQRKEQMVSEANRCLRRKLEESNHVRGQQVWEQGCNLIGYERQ
How it was run: as §1

[9] = target: T8, OsMADS45 aa 50-198; test: Y2H; output trait library
How it was run: as §1

T2 sequence (chain, as listed by the source): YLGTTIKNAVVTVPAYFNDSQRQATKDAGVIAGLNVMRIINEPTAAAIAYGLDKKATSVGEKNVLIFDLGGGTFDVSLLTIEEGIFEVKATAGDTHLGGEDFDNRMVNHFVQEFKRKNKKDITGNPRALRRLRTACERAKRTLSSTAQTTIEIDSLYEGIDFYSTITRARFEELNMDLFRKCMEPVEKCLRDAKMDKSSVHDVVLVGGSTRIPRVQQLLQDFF
T4 sequence (chain, as listed by the source): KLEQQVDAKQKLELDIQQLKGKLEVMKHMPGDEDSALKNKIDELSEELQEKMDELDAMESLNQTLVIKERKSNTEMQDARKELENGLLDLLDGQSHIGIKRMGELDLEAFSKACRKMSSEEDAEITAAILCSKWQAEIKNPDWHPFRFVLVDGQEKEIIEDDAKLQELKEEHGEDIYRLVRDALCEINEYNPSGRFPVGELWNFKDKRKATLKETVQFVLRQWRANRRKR

B1: OsRAP1B aa 30-180 (other)
chain: KKANEISVLCDAEVALIIFSTKGKLYEYATDSCMDKILERYERYSYAEKVLISAESDTQGNWCHEYRKLKAKVETIQKCQKHLMGEDLESLNLKELQQLEQQLENSLKHIRSRKSQLMLESINELQRKEKSLQEENKVLQKELVEKQKVQK
notes: bait, Gal4 DBD fusion; also called PN20232
[1]
  binding result: binds

B2: OsPN29117 aa 11-160 (other)
chain: GPAVRLRVSHGASFRDVAVPAHSTFGELKGVLTQATGVEPERQRLFFRGKEKSDNEFLHTAGVKDGAKLLLLEKPAPANVEQRAEPVIMDESMMKACEAVGRVRAEVDRLSAKVCDLEKSVFAGRKIEDKDFVVLTELLMMELLKLDGIE
notes: prey, AD fusion
[2]
  binding result: binds

B3: OsAAK72891 aa 322-549 (other)
chain: EIITYFKSEMSKLKRMHELDLQEKTEELFKFKREKGLLTLKNDVEFEPLRKKIPQIISRMDQIISKNIKMPSLCMTNDGLDERCISAKRIDSLYYENQHLRGLLADNMKDVKELSSQLSEASKEMSIQLSSEDDLLRQIAKIKEEYEDLQIEAGVRDGVYQTITRKLLDDSMNSMHDAATNFSTELSSLEAMISEKEKALCLSNEENRMLKEKIAELEQCLIQDKQED
notes: prey, AD fusion; also called PN26317
[3]
  binding result: binds

B4: OsPN23829 prey clone -4-226 (other)
chain: MALSVEKTSSGREYKVKDLSQADFGRLEIELAEVEMPGLMACRAEFGPSQPFKGARISGSLHMTIQTAVLIETLTALGAEVRWCSCNIFSTQDHAAAAIARDSAAVFAWKGETLEEYWWCTERCLDWGVGGGPDLIVDDGGDATLLIHEGVKAEEEFEKSGKVPDPESTDNAEFKIVLTIIRDGLKSDPSKYRKMKERLVGVSEETTTGVKRLYQMQETGALLFPA
notes: prey, AD fusion
[4]
  binding result: binds

B5: PN23949 aa 244-418 (other)
chain: HKLKSSLILMPMVSLLLLLLIRVLGRNRISPSPALSTLPKDEVERMVEEADKFAQEDKEKRDAIDTKNQADSVVYQTEKQLKELGDKVPAPVKEKVDAKLNELKEAIAGGSTQSMKDAMAALNEEVMQIGQAMYNQQPNAGAAGPTPGADAGPTSSGGKGPNDGDVIDADFTDSN
notes: prey, AD fusion; also called HSP70-like
[5]
  binding result: binds

B6: OsRAP1B aa 1-188 (other)
chain: MGRGKVQLKRIENKINRQVTFSKRRSGLLKKANEISVLCDAEVALIIFSTKGKLYEYATDSCMDKILERYERYSYAEKVLISAESDTQGNWCHEYRKLKAKVETIQKCQKHLMGEDLESLNLKELQQLEQQLENSLKHIRSRKSQLMLESINELQRKEKSLQEENKVLQKELVEKQKVQKQQLQWDQT
notes: prey, AD fusion; also called PN20232
[6]
  binding result: binds

B7: OsPN23829 aa 1-247 (other)
chain: MALSVEKTSSGREYKVKDLSQADFGRLEIELAEVEMPGLMACRAEFGPSQPFKGARISGSLHMTIQTAVLIETLTALGAEVRWCSCNIFSTQDHAAAAIARDSAAVFAWKGETLEEYWWCTERCLDWGVGGGPDLIVDDGGDATLLIHEGVKAEEEFEKSGKVPDPESTDNAEFKIVLTIIRDGLKSDPSKYRKMKERLVGVSEETTTGVKRLYQMQETGALLFPAINVNDSVTKSKFDNLYGCRHS
notes: prey, AD fusion
[7]
  binding result: binds

B8: OsPN23495 aa 39-165 (other)
chain: RLMVLRMAMDIQKFMQNPQLHEFEFQHFPTSYLRCAAHRVAQHYGLETTVADSLVDGSVSKIVAKKTSESKLPVIALSEVPSKQARNEHEAAEKLKFVICPRPKAFQNGAGDAGAKNNAARTVEERI
notes: prey, AD fusion; also called Novel protein PN23495
[8]
  binding result: binds

B9: OsSGT1 aa 9-227 (other)
chain: LESKAKAAFVDDDFELAAELYTQAIEASPATAELYADRAQAHIKLGNYTEAVADANKAIELDPSMHKAYLRKGAACIRLEEYQTAKAALELGYSFASGDSRFTRLMKECDERIAEELTEVPVKKAEDGAAAPSVASFVEEKDDAANMDNTPPMVEVKPKYRHDFYNSATEVVLTIFAKGVPAENVVVDFGEQMLSVSIEVPGEEPYHFQPRLFSKIIPE
notes: prey, AD fusion; also called PN20285
[5]
  binding result: binds

B10: OsMADS14 aa 124-223 (other)
chain: ELQQLEQQLENSLKHIRSRKSQLMLESINELQRKEKSLQEENKVLQKELVEKQKVQKQQVQWDQTQPQTSSSSSSFMMREALPTTNISNYPAAAGERIED
notes: prey, AD fusion; also called PN20910
[9]
  binding result: binds

B11: OsPN30858 aa 230-400 (other)
chain: VRTFLERTHERCRASYMEAVLEKQSYILLSRNDVESLMRLDPANLSLQNSFGQLDHSIPDAEAVEVEIELSDLLLDMCPIKQENLIHDDQKLILLASLSDSLEYLADSVERLGESFINSSTMLENKNHIHQGRHTRSTSAIPKSLASLANEYRRLAIDCVRVLRLEMQLET
notes: prey, AD fusion; also called Novel Protein PN30858
[7]
  binding result: binds

B12: OsPN23495 aa 12-198 (other)
chain: PPAAAEDGRVTSHVDPFLVEALDNPRHRLMVLRMAMDIQKFMQNPQLHEFEFQHFPTSYLRCAAHRVAQHYGLETTVADSLVDGSVSKIVAKKTSESKLPVIALSEVPSKQARNEHEAAEKLKFVICPRPKAFQNGAGDAGAKNNAARTVEERIEEYNKARARIFNGSISDIEGTSDLGALSVARDE
notes: prey, AD fusion
[8]
  binding result: binds

B13: OsMADS14 aa 82-197 (other)
chain: SAESDTQGNWCHEYRKLKAKVETIQKCQKHLMGEDLESLNLKELQQLEQQLENSLKHIRSRKSQLMLESINELQRKEKSLQEENKVLQKELVEKQKVQKQQVQWDQTQPQTSSSSS
notes: as for B10
[9]
  binding result: binds

B14: OsPN29117 aa 29-160 (other)
chain: VPAHSTFGELKGVLTQATGVEPERQRLFFRGKEKSDNEFLHTAGVKDGAKLLLLEKPAPANVEQRAEPVIMDESMMKACEAVGRVRAEVDRLSAKVCDLEKSVFAGRKIEDKDFVVLTELLMMELLKLDGIE
notes: prey, AD fusion
[2]
  binding result: binds

B15: OsPN23829 prey clone -2-195 (other)
chain: MALSVEKTSSGREYKVKDLSQADFGRLEIELAEVEMPGLMACRAEFGPSQPFKGARISGSLHMTIQTAVLIETLTALGAEVRWCSCNIFSTQDHAAAAIARDSAAVFAWKGETLEEYWWCTERCLDWGVGGGPDLIVDDGGDATLLIHEGVKAEEEFEKSGKVPDPESTDNAEFKIVLTIIRDGLKSDPSKYRKM
notes: prey, AD fusion
[4]
  binding result: binds
